Laboratory results taken from paper PMC3539207.
Like-named read-outs stand apart in the source and are kept apart here.

What was measured:
Test in all cases: fluorescence polarization
GR DBD WT [1] = target: T1, GR DBD WT (Homo sapiens, UniProt P04150 417-506)
GR DBD R460D/D462R = GR DBD R460D/D462R (Homo sapiens, UniProt P04150 417-506, R460D;D462R)
GR DBD WT [2] = target: T1, GR DBD WT; remark: listed apart in the source
GR DBD WT [3] = target: T1, GR DBD WT; remark: listed apart in the source

T1 sequence (P04150 417-506): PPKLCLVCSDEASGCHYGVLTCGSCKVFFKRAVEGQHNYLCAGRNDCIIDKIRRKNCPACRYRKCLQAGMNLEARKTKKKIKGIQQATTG
Chain of GR DBD R460D/D462R (P04150 417-506 R460D/D462R): as the sequence (P04150 417-506) above, with R44D, D46R counted along it

B1: FGFR3 nGRE (dsDNA)
DNA 1: CTGCCTCCCCGGAGATGG
DNA 2: CCATCTCCGGGGAGGCAG
Kd (GR DBD WT [1]): 280 ± 80 nM

B2: (+)GRE (dsDNA)
DNA 1: CCAGAACAGAGTGTTCTGA
DNA 2: TCAGAACACTCTGTTCTGG
Kd (GR DBD R460D/D462R): 80 ± 7 nM
Kd (GR DBD WT [2]): 70 ± 7 nM

B3: TSLP, low site only (dsDNA)
DNA 1: CCGCCTCCGG
DNA 2: CCGGAGGCGG
Kd (GR DBD WT [3]): 12.7 ± 0.8 µM

B4: INS nGRE (dsDNA)
DNA 1: TGCTCTCCTGGAGACATT
DNA 2: AATGTCTCCAGGAGAGCA
Kd (GR DBD WT [1]): 500 ± 70 nM
